Measurements reported in article PMC9181698.

B1: unnamed (parent)
chain 1: DKEWILQKIYEIMRLLDELGHAEASMRVSDLIYEF
chain 2: not shown

Variants of: B1
Settings: with partner chain of the complex shown; 12 nM peptide; read off a plot
For chain 1 D30A, the screen value was 96%.
With chain 1 M13A the screen value was 92%.
With chain 1 E23A the screen value was 50%.
For chain 1 L6A, the screen value was 69%.
chain 1 Y33A gave a screen value of 86%.
Variant chain 1 R14A has a screen value of 24%.
For chain 1 V28A, the screen value was 8.5%.
For chain 1 K2A, the screen value was 47%.
With chain 1 E11A the screen value was 26%.
Work on chain 1 L16A yielded a screen value of 23%.
chain 1 I5A was tested, and the screen value was 3%.
For chain 1 D17A, the screen value was 14%.
With chain 1 Y10A the screen value was 18%.
With chain 1 I12A the screen value was 7%.
chain 1 M26A gave a screen value of 67%.
chain 1 I9A showed a screen value of 3%.
Work on chain 1 S25A yielded a screen value of 9%.
In the case of chain 1 G20A, the screen value is reported as 66%.
For chain 1 W4A, the screen value was 3.7%.
For chain 1 K8A, the screen value was 19%.
For chain 1 H21A, the screen value was 31%.
Variant chain 1 L19A has a screen value of 1.7%.
Variant chain 1 Q7A has a screen value of 19%.
In the case of chain 1 E34A, the screen value is reported as 20%.
Work on chain 1 E18A yielded a screen value of 1%.
In the case of chain 1 F35A, the screen value is reported as 23%.
With chain 1 L31A the screen value was 18%.
chain 1 L15A showed a screen value of 4.5%.
In the case of chain 1 E3A, the screen value is reported as 4.5%.
Work on chain 1 R27A yielded a screen value of 3%.
For chain 1 D1A, the screen value was 4.5%.
For chain 1 I32A, the screen value was 46%.
Variant chain 1 S29A has a screen value of 49%.
